Patent publication US20030091564A1 (published 2003)
Each block holds one binder with its values, some of them ahead of it.

Legend:
CD40/Fc fusion protein [1] = biological target: T1, CD40/Fc fusion protein (human, UniProt P25942 21-193); experiment: BIAcore biosensor, CD40/Fc captured by goat anti-human IgG1 Fc; first experiment
T1 construct: extracellular domain; also called C40/Fc; CD40Fc recombinant receptor
Experimental: (§1) This example illustrates the binding affinities of several different CD40-L constructs. Affinity experiments were conducted by biospecific interaction analysis (BIA) using a biosensor, an instrument that combines a biological recognition mechanism with a sensing device or transducer. An exemplary biosensor is BIAcore™, from Pharmacia Biosensor AB (Uppsala, Sweden; see Fägerstam L. G., Techniques in Protein Chemistry II, ed. J. J. Villafranca, Acad. Press, NY, 1991). BIAcore™ uses the optical phenomenon surface plasmon resonance (Kretschmann and Raether, Z. Naturforschung, Teil. A 23:2135, 1968) to monitor the interaction of two biological molecules.
(§2) The biosensor chips were coated with goat anti-human IgG₁ Fc, which was used to bind CD40/Fc (prepared as described in Example 1) to the chip. The different constructs of CD40-L were then added at increasing concentrations; the chip was regenerated between the different constructs by the addition of sodium hydroxide. Two separate experiments were performed. In the first, the binding of a dimeric human CD40-L (Example 14), trimeric human CD40-L (Example 15), dimeric murine CD40-L (prepared substantially as described in Example 14 for human CD40-L/FC) and trimeric murine CD40-L (prepared substantially as described for the human CD40-L in Example 15) were compared. In the second experiment, the binding of trimeric human CD40-L was compared to the binding of two different preparations of monomeric human CD40-L prepared as described in Example 18. The resultant data were analyzed to determine the affinity and association rate constants of the different CD40-L constructs. Results are shown in Table 12 below, and in FIGS. 18 and 19.

CD40/Fc fusion protein [2] = biological target: T1, CD40/Fc fusion protein; experiment: BIAcore biosensor, CD40/Fc captured by goat anti-human IgG1 Fc; first experiment; K1 (site 1)
Experimental: as §1, §2

CD40/Fc fusion protein [3] = biological target: T1, CD40/Fc fusion protein; experiment: BIAcore biosensor, CD40/Fc captured by goat anti-human IgG1 Fc; first experiment; K2 (site 2)
Experimental: as §1, §2

CD40/Fc fusion protein [4] = biological target: T1, CD40/Fc fusion protein; experiment: biosensor assay substantially as in Example 22; yeast-expressed protein
Experimental: as §2
Mutant 18PP had only a single mutation in the molecule, which was sufficient to affect secretion in yeast. Mutant 41 had two mutations, both of which were in the isoleucine residues of the zipper domain. The mutations in the zipper improve secretion from yeast without apparent effect on activity.

CD40 on cells = CD40 on cells (UniProt P25942 21-277, limits assumed); experiment: cell-based or functional assay
CD40/Fc fusion protein [5] = biological target: T1, CD40/Fc fusion protein; experiment: BIAcore biosensor, CD40/Fc captured by goat anti-human IgG1 Fc; second experiment
Experimental: as §1
(§3) The biosensor chips were coated with goat anti-human IgG₁ Fc, which was used to bind CD40/Fc (prepared as described in Example 1) to the chip. The different constructs of CD40-L were then added at increasing concentrations; the chip was regenerated between the different constructs by the addition of sodium hydroxide. Two separate experiments were performed. […] The resultant data were analyzed to determine the affinity and association rate constants of the different CD40-L constructs. […]

CD40/Fc fusion protein [6] = biological target: T1, CD40/Fc fusion protein; experiment: BIAcore biosensor, CD40/Fc captured by goat anti-human IgG1 Fc; second experiment; K1 (site 1)
Experimental: as §1, §3

CD40/Fc fusion protein [7] = biological target: T1, CD40/Fc fusion protein; experiment: BIAcore biosensor, CD40/Fc captured by goat anti-human IgG1 Fc; second experiment; K2 (site 2)
Experimental: as §1, §3

T1 sequence (P25942 other isoform, or with tags, fused parts or gaps limits assumed): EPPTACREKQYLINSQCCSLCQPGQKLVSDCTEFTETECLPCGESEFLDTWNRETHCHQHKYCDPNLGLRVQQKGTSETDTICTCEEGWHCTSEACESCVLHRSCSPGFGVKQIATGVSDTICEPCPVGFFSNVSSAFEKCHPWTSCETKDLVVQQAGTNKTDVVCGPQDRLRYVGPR
CD40 on cells, sequence (P25942 21-277 limits assumed): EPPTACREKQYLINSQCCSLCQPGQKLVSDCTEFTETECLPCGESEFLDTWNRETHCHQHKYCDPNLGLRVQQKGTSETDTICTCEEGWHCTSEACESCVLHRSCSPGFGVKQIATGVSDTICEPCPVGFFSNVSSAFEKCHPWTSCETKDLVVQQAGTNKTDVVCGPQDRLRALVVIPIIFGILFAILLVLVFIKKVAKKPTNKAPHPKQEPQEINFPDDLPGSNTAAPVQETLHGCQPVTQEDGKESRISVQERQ

- Site 1 (mol/mol CD40/Fc) (CD40/Fc fusion protein [1]): 0.02 mol/mol CD40/Fc
- Site 2 (mol/mol CD40/Fc) (CD40/Fc fusion protein [1]): 0.44 mol/mol CD40/Fc
- Ka (CD40/Fc fusion protein [2]): 6e+10 M⁻¹
- Ka (CD40/Fc fusion protein [3]): 1.6e+08 M⁻¹
B3: trimeric murine CD40-L (ligand)
chain: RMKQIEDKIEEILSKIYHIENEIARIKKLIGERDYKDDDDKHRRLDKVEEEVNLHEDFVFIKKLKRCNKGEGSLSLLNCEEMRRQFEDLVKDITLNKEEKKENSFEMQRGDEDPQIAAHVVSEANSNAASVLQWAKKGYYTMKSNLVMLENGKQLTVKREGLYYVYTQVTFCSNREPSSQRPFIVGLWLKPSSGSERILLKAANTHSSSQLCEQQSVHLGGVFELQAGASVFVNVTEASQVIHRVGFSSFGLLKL
notes: also called Murine Trimer; muCD40LT

- Ka (CD40/Fc fusion protein [4]): 7.7e+07 M⁻¹
- B-cell proliferation (U/µg), Experiment 2 (CD40 on cells): 15 U/µg
B4: wild type CD40 ligand/zipper domain fusion protein expressed in yeast (ligand)
chain: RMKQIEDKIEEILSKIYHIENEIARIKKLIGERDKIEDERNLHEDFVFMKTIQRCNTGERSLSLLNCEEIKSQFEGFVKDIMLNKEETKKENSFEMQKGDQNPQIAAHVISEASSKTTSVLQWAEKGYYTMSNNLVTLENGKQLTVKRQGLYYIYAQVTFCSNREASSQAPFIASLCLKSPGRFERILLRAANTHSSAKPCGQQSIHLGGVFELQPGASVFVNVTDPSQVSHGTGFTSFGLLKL
notes: also called WT

Second part, the binder before the results:

B1: CD40-L/FC2 soluble CD40-L/Fc fusion protein (Fc fusion)
chain: DYKDDDDKRSCDKTHTCPPCPAPELLGGPSVFLFPPKPKDTLMISRTPEVTCVVVDVSHEDPEVKFNWYVDGVEVHNAKTKPREEQYNSTYRVVSVLTVLHQDWLNGKEYKCKVSNKALPAPIEKTISKAKGQPREPQVYTLPPSRDELTKNQVSLTCLVKGFYPSDIAVEWESNGQPENNYKTTPPVLDSDGSFFLYSKLTVDKSRWQQGNVFSCSVMHGGGGSGGGGSGGGGSSSDKIEDERNLHEDFVFMKTIQRCNTGERSLSLLNCEEIKSQFEGFVKDIMLNKEETKKENSFEMQKGDQNPQIAAHVISEASSKTTSVLQWAEKGYYTMSNNLVTLENGKQLTVKRQGLYYIYAQVTFCSNREASSQAPFIASLCLKSPGRFERILLRAANTHSSAKPCGQQSIHLGGVFELQPGASVFVNVTDPSQVSHGTGFTSFGLLKL
notes: also called dimeric human CD40-L; Human Dimer
- Site 1 (mol/mol CD40/Fc) (CD40/Fc fusion protein [1]): 0.013 mol/mol CD40/Fc
- Site 2 (mol/mol CD40/Fc) (CD40/Fc fusion protein [1]): 0.049 mol/mol CD40/Fc
- Ka (CD40/Fc fusion protein [2]): 1.6e+11 M⁻¹
- Ka (CD40/Fc fusion protein [3]): 7e+08 M⁻¹

B2: dimeric murine CD40-L (Fc fusion, not shown: a dimerising Fc or GST)
chain: HRRLDKVEEEVNLHEDFVFIKKLKRCNKGEGSLSLLNCEEMRRQFEDLVKDITLNKEEKKENSFEMQRGDEDPQIAAHVVSEANSNAASVLQWAKKGYYTMKSNLVMLENGKQLTVKREGLYYVYTQVTFCSNREPSSQRPFIVGLWLKPSSGSERILLKAANTHSSSQLCEQQSVHLGGVFELQAGASVFVNVTEASQVIHRVGFSSFGLLKL
notes: the whole entry is named; also called Murine Dimer
- Site 1 (mol/mol CD40/Fc) (CD40/Fc fusion protein [1]): 0.05 mol/mol CD40/Fc
- Site 2 (mol/mol CD40/Fc) (CD40/Fc fusion protein [1]): 0.14 mol/mol CD40/Fc

B5: trimeric human CD40-L (ligand)
chain: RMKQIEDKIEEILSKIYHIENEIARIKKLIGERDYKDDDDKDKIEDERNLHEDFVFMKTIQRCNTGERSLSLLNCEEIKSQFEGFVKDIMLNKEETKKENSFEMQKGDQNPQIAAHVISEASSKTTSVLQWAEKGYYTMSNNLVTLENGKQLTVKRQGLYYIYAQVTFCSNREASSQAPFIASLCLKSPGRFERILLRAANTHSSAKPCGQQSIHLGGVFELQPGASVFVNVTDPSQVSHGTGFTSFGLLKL
notes: Leader left out; also called Human Trimer; CD40-L trimer
- Site 1 (mol/mol CD40/Fc) (CD40/Fc fusion protein [1]): 0.04 mol/mol CD40/Fc
- Site 2 (mol/mol CD40/Fc) (CD40/Fc fusion protein [1]): 0.68 mol/mol CD40/Fc
- Ka (CD40/Fc fusion protein [2]): 5e+09 M⁻¹
- Site 2 (mol/mol CD40/Fc) (CD40/Fc fusion protein [5]): 0.41 mol/mol CD40/Fc
- Ka (CD40/Fc fusion protein [6]): 6.6e+08 M⁻¹
- Ka (CD40/Fc fusion protein [3]): 7.5e+07 M⁻¹
- Ka (CD40/Fc fusion protein [7]): 2.6e+07 M⁻¹
